Experimental data as given in PMC9166362, “Early midcell localization of Escherichia coli PBP4 supports the function of peptidoglycan amidases” (PLoS Genetics, 2022).

Legend:
[1] = molecular target: PBP4ΔD3 (PBP4 lacking domain 3), His-tagged (E. coli) (UniProt P24228); assay: AUC; sedimentation velocity, 45,000 rpm, 20°C, 25 mM HEPES/NaOH, 150 mM NaCl, pH 7.5, about 0.25 to 1.4 mg/ml; c(s) analysis
[2] = molecular target: EnvC, soluble version without the N-terminal 34 amino acid signal peptide (E. coli) (UniProt P37690); assay: MST; one protein fluorescently labelled (NT-647 dye) at a fixed concentration, two-fold serial dilution of unlabelled ligand over 16 samples; 25 mM HEPES/NaOH, 150 mM NaCl, 0.05% Triton X-100, pH 7.5; Monolith NT.115; apparent KD
[3] = molecular target: LpoA, soluble (LpoAΔ1–27) (E. coli) (UniProt P45464); assay: as above
[4] = molecular target: LpoA^N, N-terminal domain of LpoA (residues G28-T256) (E. coli) (UniProt P45464); assay: as above
[5] = molecular target: PBP4 (penicillin binding protein 4, DD-carboxy/endopeptidase), purified, untagged (E. coli) (UniProt P24228); assay: AUC; sedimentation velocity, 45,000 rpm, 20°C, 25 mM HEPES/NaOH, 150 mM NaCl, pH 7.5, about 0.25 to 1.4 mg/ml; c(s) analysis
[6] = molecular target: PBP4ΔD3 (PBP4 lacking domain 3), His-tagged (E. coli, UniProt P24228 21-477, PBP4Δ173–247 (domain 3)); assay: MST
[7] = molecular target: T1, PBP4 (penicillin binding protein 4, DD-carboxy/endopeptidase), purified, untagged (E. coli, UniProt P24228 61-477); assay: MST
T1 chain: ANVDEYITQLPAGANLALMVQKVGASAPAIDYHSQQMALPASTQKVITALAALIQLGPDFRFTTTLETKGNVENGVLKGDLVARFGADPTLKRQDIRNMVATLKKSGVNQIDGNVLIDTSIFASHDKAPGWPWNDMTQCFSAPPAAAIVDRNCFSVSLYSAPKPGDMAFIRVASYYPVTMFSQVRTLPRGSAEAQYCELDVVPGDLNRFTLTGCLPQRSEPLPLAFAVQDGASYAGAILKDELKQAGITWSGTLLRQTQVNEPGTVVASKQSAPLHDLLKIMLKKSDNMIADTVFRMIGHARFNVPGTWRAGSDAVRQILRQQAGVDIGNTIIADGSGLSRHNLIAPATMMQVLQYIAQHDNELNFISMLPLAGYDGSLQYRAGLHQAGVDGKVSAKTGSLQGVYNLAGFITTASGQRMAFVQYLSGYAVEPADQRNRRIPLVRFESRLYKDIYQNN

[8] = molecular target: T2, EnvC, soluble version without the N-terminal 34 amino acid signal peptide (E. coli, UniProt P37690 35-419); assay: MST; one protein fluorescently labelled (NT-647 dye) at a fixed concentration, two-fold serial dilution of unlabelled ligand over 16 samples; 25 mM HEPES/NaOH, 150 mM NaCl, 0.05% Triton X-100, pH 7.5; Monolith NT.115; apparent KD; details: both partners purified
T2 construct: EnvC of E. coli, soluble version without the N-terminal, 34 amino acid long, signal peptide; the text calls it full-length EnvC; In MST fluorescently labelled (Fl-EnvC) in some runs; also called full-length EnvC; Fl-EnvC; source: E. coli BL21(DE3) pET28a-His-EnvC, purified (HisTrap, thrombin, Superdex 200)
T2 sequence (looked up): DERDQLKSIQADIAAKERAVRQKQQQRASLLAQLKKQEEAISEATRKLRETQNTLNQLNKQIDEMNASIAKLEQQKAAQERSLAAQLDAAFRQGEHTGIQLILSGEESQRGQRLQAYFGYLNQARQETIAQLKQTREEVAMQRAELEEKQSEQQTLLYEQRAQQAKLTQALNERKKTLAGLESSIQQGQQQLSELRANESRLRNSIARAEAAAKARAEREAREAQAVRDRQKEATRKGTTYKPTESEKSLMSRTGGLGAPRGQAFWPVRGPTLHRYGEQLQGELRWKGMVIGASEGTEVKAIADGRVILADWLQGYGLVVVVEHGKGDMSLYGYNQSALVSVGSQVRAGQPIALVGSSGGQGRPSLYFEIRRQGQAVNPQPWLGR

[9] = molecular target: T2, EnvC, soluble version without the …; assay: pull-down; Ni-NTA beads; equimolar (1–2 μM) His-tagged and untagged proteins; 10 mM HEPES/NaOH, 10 mM MgCl2, 150 mM NaCl, 0.05% Triton X-100, pH 7.5, 4°C; washes with 30 mM imidazole; SDS-PAGE; His-NlpI also with PBP4 and EnvC together; details: both partners purified

## PBP4ΔD3 (PBP4 lacking domain 3), His-tagged (from UniProt P24228 21-477) (enzyme)
[1]
  stoichiometry N: 2
[2]
  Kd: > 5900 nM
[3]
  Kd: 153 nM
[4]
  fold decrease of app. KD against PBP4: 50 fold

## PBP4 (penicillin binding protein 4, DD-carboxy/endopeptidase), purified, untagged (from UniProt P24228 61-477) (enzyme)
[5]
  stoichiometry N: 2
[2]
  Kd: 307 nM
[3]
  Kd: 315 nM

B1: PBP1A, purified (full length His-PBP1A) (enzyme)
chain: MKFVKYFLILAVCCILLGAGSIYGLYRYIEPQLPDVATLKDVRLQIPMQIYSADGELIAQYGEKRRIPVTLDQIPPEMVKAFIATEDSRFYEHHGVDPVGIFRAASVALFSGHASQGASTITQQLARNFFLSPERTLMRKIKEVFLAIRIEQLLTKDEILELYLNKIYLGYRAYGVGAAAQVYFGKTVDQLTLNEMAVIAGLPKAPSTFNPLYSMDRAVARRNVVLSRMLDEGYITQQQFDQTRTEAINANYHAPEIAFSAPYLSEMVRQEMYNRYGESAYEDGYRIYTTITRKVQQAAQQAVRNNVLDYDMRHGYRGPANVLWKVGESAWDNNKITDTLKALPTYGPLLPAAVTSANPQQATAMLADGSTVALSMEGVRWARPYRSDTQQGPTPRKVTDVLQTGQQIWVRQVGDAWWLAQVPEVNSALVSINPQNGAVMALVGGFDFNQSKFNRATQALRQVGSNIKPFLYTAAMDKGLTLASMLNDVPISRWDASAGSDWQPKNSPPQYAGPIRLRQGLGQSKNVVMVRAMRAMGVDYAAEYLQRFGFPAQNIVHTESLALGSASFTPMQVARGYAVMANGGFLVDPWFISKIENDQGGVIFEAKPKVACPECDIPVIYGDTQKSNVLENNDVEDVAISREQQNVSVPMPQLEQANQALVAKTGAQEYAPHVINTPLAFLIKSALNTNIFGEPGWQGTGWRAGRDLQRRDIGGKTGTTNSSKDAWFSGYGPGVVTSVWIGFDDHRRNLGHTTASGAIKDQISGYEGGAKSAQPAWDAYMKAVLEGVPEQPLTPPPGIVTVNIDRSTGQLANGGNSREEYFIEGTQPTQQAVHEVGTTIIDNGEAQELF
[6]
  Kd: 240 nM
[7]
  Kd: 67 nM

B2: NlpI, soluble, as used in microscale thermophoresis (natural protein, E. coli, UniProt P0AFB1 19-294, looked up)
chain: CSNTSWRKSEVLAVPLQPTLQQEVILARMEQILASRALTDDERAQLLYERGVLYDSLGLRALARNDFSQALAIRPDMPEVFNYLGIYLTQAGNFDAAYEAFDSVLELDPTYNYAHLNRGIALYYGGRDKLAQDDLLAFYQDDPNDPFRSLWLYLAEQKLDEKQAKEVLKQHFEKSDKEQWGWNIVEFYLGNISEQTLMERLKADATDNTSLAEHLSETNFYLGKYYLSLGDLDSATALFKLAVANNVHNFVEHRYALLELSLLGQDQDDLAESDQQ
notes: NlpI, outer membrane lipoprotein of E. coli, 'Soluble NlpI construct'; In some MST runs fluorescently labelled (Fl-NlpI); also called Fl-NlpI; source: purified from overexpression strain according to published procedures [55]; (plasmid pET28a-His-NlpI)
[7]
  Kd: 177 nM
[8]
  binding result: binds

B3: His-NlpI (oligo-histidine tagged soluble NlpI) (natural protein, E. coli, UniProt P0AFB1 19-294, looked up)
chain: CSNTSWRKSEVLAVPLQPTLQQEVILARMEQILASRALTDDERAQLLYERGVLYDSLGLRALARNDFSQALAIRPDMPEVFNYLGIYLTQAGNFDAAYEAFDSVLELDPTYNYAHLNRGIALYYGGRDKLAQDDLLAFYQDDPNDPFRSLWLYLAEQKLDEKQAKEVLKQHFEKSDKEQWGWNIVEFYLGNISEQTLMERLKADATDNTSLAEHLSETNFYLGKYYLSLGDLDSATALFKLAVANNVHNFVEHRYALLELSLLGQDQDDLAESDQQ
notes: NlpI, outer membrane lipoprotein of E. coli, 'Soluble NlpI construct'; Bait on Ni-NTA beads; also called oligohistidine-tagged-NlpI; source: purified from overexpression strain according to published procedures [55]; (plasmid pET28a-His-NlpI); not shown: His, N-terminal, kept
[9]
  binding result: binds

B4: LpoA^C, C-terminal domain of LpoA (residues N257-S678) (domain or fragment)
chain: NKIALLLPLNGQAAVFGRTIQQGFEAAKNIGTQPVAAQVAAAPAADVAEQPQPQTVDGVASPAQASVSDLTGEQPAAQPVPVSAPATSTAAVSAPANPSAELKIYDTSSQPLSQILSQVQQDGASIVVGPLLKNNVEELLKSNTPLNVLALNQPENIENRVNICYFALSPEDEARDAARHIRDQGKQAPLVLIPRSSLGDRVANAFAQEWQKLGGGTVLQQKFGSTSELRAGVNGGSGIALTGSPITLRATTDSGMTTNNPTLQTTPTDDQFTNNGGRVDAVYIVATPGEIAFIKPMIAMRNGSQSGATLYASSRSAQGTAGPDFRLEMEGLQYSEIPMLAGGNLPLMQQALSAVNNDYSLARMYAMGVDAWSLANHFSQMRQVQGFEINGNTGSLTANPDCVINRNLSWLQYQQGQVVPVS
[6]
  Kd: 315 nM
[7]
  Kd: 226 nM

B5: LpoA^N, N-terminal domain of LpoA (residues G28-T256) (domain or fragment)
chain: GTHTPDQSTAYMQGTAQADSAFYLQQMQQSSDDTRINWQLLAIRALVKEGKTGQAVELFNQLPQELNDAQRREKTLLAVEIKLAQKDFAGAQNLLAKITPADLEQNQQARYWQAKIDASQGRPSIDLLRALIAQEPLLGAKEKQQNIDATWQALSSMTQEQANTLVINADENILQGWLDLQRVWFDNRNDPDMMKAGIADWQKRYPNNPGAKMLPTQLVNVKAFKPAST
[6]
  Kd: 17 nM
[7]
  Kd: 954 nM
